This assay deals with T1, CD47 on cells (HCC827 tumor cells; red blood cells from healthy people) (human, UniProt Q08722 19-323).
T1 construct: whole, on cells; Endogenous CD47 on human cells
Put plainly: flow cytometry on mixed HCC827 cells and red blood cells. For orientation: In flow cytometry, cells or beads pass a laser one at a time.

Experimental findings from US20240052037A1 (BEIJING HANMI PHARMACEUTICAL, published 2024) are described below.

T1 sequence (Q08722 19-323): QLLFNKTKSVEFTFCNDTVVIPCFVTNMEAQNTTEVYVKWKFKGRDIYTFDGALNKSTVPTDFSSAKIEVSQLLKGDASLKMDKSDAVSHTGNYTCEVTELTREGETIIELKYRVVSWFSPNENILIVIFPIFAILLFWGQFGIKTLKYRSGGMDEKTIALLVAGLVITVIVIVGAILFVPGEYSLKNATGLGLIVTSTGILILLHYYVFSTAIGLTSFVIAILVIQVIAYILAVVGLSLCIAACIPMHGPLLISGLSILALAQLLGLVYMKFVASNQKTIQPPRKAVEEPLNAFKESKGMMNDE
Procedure: HCC827 tumor cells express PD-L1 and CD47, but red blood cells (RBCs) express only CD47. HCC827 cells and RBCs were mixed together, and flow cytometry (FCM) was used to detect whether the heterodimer was selective for the binding to the two cells in the mixed cells.
The specific implementation process of this method is as follows. […] Flow tubes were incubated on ice for 30 minutes. The cells were washed twice with PBS containing 2% FBS. Then the pellets were resuspended in 200 μL of cold PBS containing 2% FBS and FITC-labeled anti-human IgG antibody diluted 1:1000 (Beijing Zhongshan Golden Bridge, Catalog number ZF0306), incubated on ice for 30 minutes in the dark. The cells were washed twice with PBS containing 2% FBS, then resuspended in 500 μL of cold PBS. The cell suspension obtained was detected and analyzed on a flow cytometer (BD, FACS Calibur), and the respective fluorescence intensities of the two cells in the mixed cells were read.

B1: CD47 monoclonal antibody (heavy and light chain variable region sequences of the humanized sequences z11 of the antibody CD47-18-5 and the constant region … (antibody, V domains shown)
VH: QVQLVQSGAEVKKPGSSVKVSCKASGFNIEDIYMHWVRQAPGQGLEWMGRIDPANDNTKYGPKLQGRVTITADTSTNTAYMELSSLRSEDTAVYYCVRRIPTDIMDYWGQGTTVTVSS
VL: DIQMTQSPSSLSASVGDRVTITCKASQNVRTSIAWYQQKPGKAPKTLIYLASNRHTGVPSRFSGSGSGTEFTLTISNLQPEDFATYYCLQHWNYPFTFGQGTKLEIK
notes: also called anti-CD47 monoclonal antibody
Turning to B1, the binding result was “binds”.
